Measured values published in US20040018971A1 (published 2004).

B1: HER2/neu peptide, position 182, 9 amino acids (peptide)
peptide: TLIDTNRSR
notes: Synthetic A3 supermotif peptide
B2: HER2/neu peptide, position 713, 9 amino acids (peptide)
peptide: RILKETELR
notes: as for B1
B3: HER2/neu peptide, position 95, 9 amino acids (peptide)
peptide: PLQRLRIVR
notes: as for B1
B4: HER2/neu peptide, position 84, 9 amino acids (peptide)
peptide: VLIAHNQVR
notes: as for B1
B5: HER2/neu peptide, position 360, 9 amino acids (peptide)
peptide: NIQEFAGCK
notes: as for B1
B6: HER2/neu peptide, position 360, 10 amino acids (peptide)
peptide: NIQEFAGCKK
notes: as for B1
B7: HER2/neu peptide, position 1102, 10 amino acids (peptide)
peptide: PTHDPSPLQR
B8: HER2/neu peptide, position 479, 9 amino acids (peptide)
peptide: TVPWDQLFR
notes: as for B1
B9: HER2/neu peptide, position 597, 9 amino acids (peptide)
peptide: VARCPSGVK
notes: as for B1
B10: HER2/neu peptide, position 208, 10 amino acids (peptide)
peptide: SSEDCQSLTR
notes: as for B1
B11: HER2/neu peptide, position 491, 9 amino acids (peptide)
peptide: QALLHTANR
notes: as for B1
B12: HER2/neu peptide, position 1162, 10 amino acids (peptide)
peptide: PAGATLERPK
notes: as for B1
B13: HER2/neu peptide, position 90, 9 amino acids (peptide)
peptide: QVRQVPLQR
notes: as for B1
B14: Her2/neu.65 (10-mer) (peptide)
peptide: LPTNASLSFL
notes: native HER2/neu peptide from position 65
B15: Her2/neu.415.I8 (peptide)
peptide: WPDSLPDI
notes: analog peptide
B16: Her2/neu.605 (peptide)
peptide: KPDLSYMPI
notes: native HER2/neu peptide from position 605
B17: HER2/neu peptide, position 874, 10 amino acids (peptide)
peptide: ETEYHADGGK
B18: HER2/neu peptide, position 914, 10 amino acids (peptide)
peptide: ELMTFGAKPY
B19: HER2/neu peptide, position 704, 10 amino acids (peptide)
peptide: GAMPNQAQMR
B20: HER2/neu peptide, position 508, 10 amino acids (peptide)
peptide: GLACHQLCAR
B21: HER2/neu peptide, position 1188, 9 amino acids (peptide)
peptide: GGAVENPEY
B22: HER2/neu peptide, position 265, 10 amino acids (peptide)
peptide: ELHCPALVTY
B23: HER2/neu peptide, position 668, 9 amino acids (peptide)
peptide: GVVFGILIK
notes: T0001 prints T at residue 673
B24: HER2/neu peptide, position 346, 9 amino acids (peptide)
peptide: GMEHLREVR
B25: HER2/neu peptide, position 401, 9 amino acids (peptide)
peptide: ETLEEITGY
B26: HER2/neu peptide, position 327, 10 amino acids (peptide)
peptide: GTQRCEKCSK
B27: HER2/neu peptide, position 727, 9 amino acids (peptide)
peptide: GSGAFGTVY
B28: HER2/neu peptide, position 672, 10 amino acids (peptide)
peptide: GILIKRRQQK
B29: HER2/neu peptide, position 878, 10 amino acids (peptide)
peptide: HADGGKVPIK
B30: HER2/neu peptide, position 976, 10 amino acids (peptide)
peptide: FSRMARDPQR
B31: HER2/neu peptide, position 832, 9 amino acids (peptide)
peptide: GMSYLEDVR
B32: HER2/neu peptide, position 447, 10 amino acids (peptide)
peptide: GLGISWLGLR
B33: HER2/neu peptide, position 727, 10 amino acids (peptide)
peptide: GSGAFGTVYK
B34: HER2/neu peptide, position 1213, 9 amino acids (peptide)
peptide: FSPAFDNLY
B35: HER2/neu peptide, position 321, 10 amino acids (peptide)
peptide: EVTAEDGTQR
B36: HER2/neu peptide, position 776, 9 amino acids (peptide)
peptide: GVGSPYVSR
B37: HER2/neu peptide, position 280, 9 amino acids (peptide)
peptide: ESMPNPEGR
B38: HER2/neu peptide, position 549, 10 amino acids (peptide)
peptide: GLPREYVNAR
B39: HER2/neu peptide, position 1038, 9 amino acids (peptide)
peptide: GAGGMVHHR
B40: HER2/neu peptide, position 292, 10 amino acids (peptide)
peptide: GASCVTACPY
B41: Her2/neu.642.F1I10 (peptide)
peptide: FPAEQRASPI
notes: 10-mer analog of the HER2/neu peptide starting at position 642
B42: Her2/neu.706.F1I10 (peptide)
peptide: FPNQAQMRII
notes: 10-mer analog of the HER2/neu peptide starting at position 706
B43: Her2/neu.649.I9 (peptide)
peptide: SPLTSIISI
notes: 9-mer analog of the HER2/neu peptide starting at position 649
B44: Her2/neu.760.F1I9 (peptide)
peptide: FPKANKEII
notes: 9-mer analog of the HER2/neu peptide starting at position 760
B45: Her2/neu.760.F1, 8-mer (peptide)
peptide: FPKANKEI
notes: 8-mer analog of the HER2/neu peptide starting at position 760; same label as the 9-mer in r54
B46: Her2/neu.698.F1I9 (peptide)
peptide: FPLTPSGAI
notes: 9-mer analog of the HER2/neu peptide starting at position 698
B47: HER2/neu A02 supermotif peptide, position 1164, 10 amino acids (peptide)
peptide: GATLERPKTL
notes: Synthetic peptide
B48: HER2/neu A02 supermotif peptide, position 131, 10 amino acids (peptide)
peptide: GASPGGLREL
notes: Synthetic peptide
B49: HER2/neu A02 supermotif peptide, position 1189, 9 amino acids (peptide)
peptide: GAVENPEYL
notes: Synthetic peptide
B50: Her2/neu.478.V2K10 (peptide)
peptide: HVVPWDQLFK
notes: synthetic analog peptide

Target: HLA-A*0301 (human)
Test: inhibition of 125I-labelled standard peptide binding to purified HLA, gel filtration

Binder	relative binding ratio
B1	0.0004 ratio (IC50 of standard peptide / IC50 of test peptide)
B2	0.0007 ratio (IC50 of standard peptide / IC50 of test peptide)
B3	0.0002 ratio (IC50 of standard peptide / IC50 of test peptide)
B4	0.0033 ratio (IC50 of standard peptide / IC50 of test peptide)
B5	0.0002 ratio (IC50 of standard peptide / IC50 of test peptide)
B6	0.0003 ratio (IC50 of standard peptide / IC50 of test peptide)
B7	0.0003 ratio (IC50 of standard peptide / IC50 of test peptide)
B8	0.0006 ratio (IC50 of standard peptide / IC50 of test peptide)
B9	0.01 ratio (IC50 of standard peptide / IC50 of test peptide)
B10	-0.0002 ratio (IC50 of standard peptide / IC50 of test peptide)
B11	0.0046 ratio (IC50 of standard peptide / IC50 of test peptide)
B12	-0.0002 ratio (IC50 of standard peptide / IC50 of test peptide)
B13	0.0029 ratio (IC50 of standard peptide / IC50 of test peptide)

Target: HLA-A*1101 (human)
Test: as above

Binder	relative binding ratio
B1	0.0005 ratio (IC50 of standard peptide / IC50 of test peptide)
B2	0.0038 ratio (IC50 of standard peptide / IC50 of test peptide)
B3	0.0001 ratio (IC50 of standard peptide / IC50 of test peptide)
B4	0.0007 ratio (IC50 of standard peptide / IC50 of test peptide)
B5	0.0036 ratio (IC50 of standard peptide / IC50 of test peptide)
B6	0.0056 ratio (IC50 of standard peptide / IC50 of test peptide)
B7	0.0001 ratio (IC50 of standard peptide / IC50 of test peptide)
B8	0.0072 ratio (IC50 of standard peptide / IC50 of test peptide)
B9	-0.0002 ratio (IC50 of standard peptide / IC50 of test peptide)
B10	0.002 ratio (IC50 of standard peptide / IC50 of test peptide)
B11	0.001 ratio (IC50 of standard peptide / IC50 of test peptide)
B12	-0.0002 ratio (IC50 of standard peptide / IC50 of test peptide)
B13	0.0005 ratio (IC50 of standard peptide / IC50 of test peptide)

Target: HLA-B*0702 (human)
Test: competition with 125I probe peptide, purified HLA

Binder	IC50
B14	290 nM
B15	71 nM
B16	76 nM

Target: HLA-B*5101 (human)
Test: competition with 125I probe peptide, purified HLA

Binder	IC50
B14	2500 nM
B15	5000 nM
B16	2500 nM

Target: HLA-A*1101 (human)
Test: inhibition of 125I-labelled probe peptide binding to purified HLA-A*1101, gel filtration

Binder	relative binding ratio (IC50 of standard peptide / IC50 of test peptide)
B17	0.0001 relative binding ratio
B18	0.0002 relative binding ratio
B19	0.0041 relative binding ratio
B20	0.0001 relative binding ratio
B21	0.0001 relative binding ratio
B22	0.0002 relative binding ratio
B23	0.089 relative binding ratio
B24	-0.0002 relative binding ratio
B25	0.0002 relative binding ratio
B26	0.61 relative binding ratio
B27	0.0001 relative binding ratio
B28	0.0014 relative binding ratio
B29	0.0008 relative binding ratio
B30	0.001 relative binding ratio
B31	0.0002 relative binding ratio
B32	0.0001 relative binding ratio
B33	0.13 relative binding ratio
B34	0.0002 relative binding ratio
B35	0.0001 relative binding ratio
B36	0.0066 relative binding ratio
B37	-0.0002 relative binding ratio
B38	0.0003 relative binding ratio
B39	0.0043 relative binding ratio
B40	0.0001 relative binding ratio

Target: HLA-B*5101 (human)
Test: competition vs 125I-labeled standard peptide, purified HLA

Binder	IC50
B41	98 nM
B42	76 nM
B43	275 nM
B44	55 nM
B45	2500 nM
B46	9.2 nM

Target: HLA-B*5301 (human)
Test: as above

Binder	IC50
B41	4900 nM
B42	490 nM
B43	3440 nM
B44	7150 nM

Target: HLA-B*0702 (human)
Test: as above

Binder	IC50
B41	3.1 nM
B42	290 nM
B43	86 nM
B44	8.5 nM
B45	0.16 nM
B46	0.9 nM

Target: HLA-B*5401 (human)
Test: as above

Binder	IC50
B41	56 nM
B42	59 nM
B43	217 nM
B44	39 nM
B45	3120 nM
B46	1.9 nM

Target: T1, HLA-A*0201 (human)
T1 construct: also called HLA-A2.1
Test: competition with 125I-labelled standard peptide 941.01 ([..]) on purified HLA, gel filtration

Binder	relative binding ratio
B47	0.0002 ratio (IC50 of standard peptide / IC50 of test peptide)
B48	0.0001 ratio (IC50 of standard peptide / IC50 of test peptide)
B49	0.0002 ratio (IC50 of standard peptide / IC50 of test peptide)

Target: HLA-A*0301 (human)
Test: inhibition of 125I probe peptide binding to purified HLA

Binder	IC50
B50	180 nM

Target: HLA-A*6801 (human)
Test: as above

Binder	IC50
B50	8.9 nM
